According to patent publication US20260139240A1 (GRIFFITH UNIVERSITY, published 2026):

Biological target: T1, Wild type SubB (subtilase cytotoxin B subunit) (Escherichia coli, UniProt Q6EZC3 24-141)
T1 construct: also called SubB WT
Experiment: SPR (Biacore […]), […], single cycle kinetics

B1: Bovine α1-acid glycoprotein (AGP) (other)
chain: QSPECANLMTVAPITNATMDLLSGKWFYIGSAFRNPEYNKSARAIQAAFFYLEPRHAEDKLITREYQTIEDKCVYNCSFIKIYRQNGTLSKVESDREHFVDLLLSKHFRTFMLAASWNGTKNVGVSFYADKPEVTQEQKKEFLDVIKCIGIQESEIIYTDEKKDACGPLEKQHEEERKKETEAS
notes: mature; also called Bovine α1-AGP; bovine AGP
  Kd: 156 nM
